Test results from the supplement of paper PMC10724198.
± gives the standard deviation of the averaged measurements.

Assays:
Saccharomyces cerevisiae [1] = test: protein stability index of tFT-peptide fusion (C-terminal peptide) (PSI (0-1 scale)); higher = more stable (slower turnover)
Description: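 MPS profiling in S. cerevisiae of the tFT-X12 degron library: putative degron peptides plus stable controls, 12 aa, fused to the C-terminus of a sfGFP-mCherry timer. Cells are FACS-sorted into 8 mCherry/sfGFP bins and deep-sequenced. PSI runs from 0 (unstable) to 1 (stable). Backgrounds are wild type, das1Δ and doa10Δ at 30 °C, and wild type, das1Δ, cdc34-1 and cdc53-1 at 37 °C; 2-3 technical replicates each.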

Saccharomyces cerevisiae [2] = test: as above; conditions: genetic background: wild type; temperature: 30 C
[3] = genetic background: cdc34-1, temperature: 37 C
[4] = genetic background: cdc53-1, temperature: 37 C
[5] = genetic background: das1 deletion, temperature: 30 C
[6] = genetic background: das1 deletion, temperature: 37 C
[7] = genetic background: doa10 deletion, temperature: 30 C
[8] = genetic background: wild type, temperature: 30 C
[9] = genetic background: wild type, temperature: 37 C
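Further: PSI is a weighted mean of sequencing reads over stability bins, variants kept only with over 10 reads, mCherry proximal and sfGFP distal, peptide attached via GGGS linker.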

Row | Sequence | protein stability index (Saccharomyces cerevisiae [1]; [3]) | protein stability index (Saccharomyces cerevisiae [1]; [4]) | protein stability index (Saccharomyces cerevisiae [1]; [5]) | protein stability index (Saccharomyces cerevisiae [1]; [6]) | protein stability index (Saccharomyces cerevisiae [1]; [7]) | protein stability index (Saccharomyces cerevisiae [1]; [8]) | protein stability index (Saccharomyces cerevisiae [1]; [9]) | protein stability index (Saccharomyces cerevisiae [2])
1 | AALFNYVVCFCA | 0.474 ± 0.059 | 0.537 ± 0.035 | 0.377 ± 0.025 | 0.512 ± 0.013 | 0.301 ± 0.0065 | 0.323 ± 0.015 | 0.436 ± 0.025 | 0.358 ± 0.0079
2 | AASRVIYLLNLF | 0.653 ± 0.034 | 0.753 ± 0.008 | 0.6272 ± 0.0031 | 0.736 ± 0.027 | 0.197 ± 0.0028 | 0.232 ± 0.018 | 0.473 ± 0.027 | 0.3446 ± 0.0022
3 | AFRFHTYFLLLC | 0.0472 ± 0.006 | 0.0404 ± 0.0043 | 0.153 ± 0.04 | 0.184 ± 0.0066 | 0.0686 ± 0.021 | 0.0553 ± 0.012 | 0.0696 ± 0.038 | 0.0812 ± 0.019
4 | AGLLVLISWRLF | 0.0795 ± 0.014 | 0.213 ± 0.036 | 0.171 ± 0.029 | 0.337 ± 0.0065 | 0.124 ± 0.013 | 0.141 ± 0.019 | 0.223 ± 0.022 | 0.217 ± 0.036
5 | AKVFGLILVLLT | 0.211 ± 0.026 | 0.349 ± 0.027 | 0.227 ± 0.023 | 0.407 ± 0.025 | 0.201 ± 0.017 | 0.205 ± 0.024 | 0.3711 ± 0.0013 | 0.334 ± 0.022
6 | ALEIIRLSHRLC | 0.498 ± 0.048 | 0.689 ± 0.022 | 0.618 ± 0.008 | 0.731 ± 0.009 | 0.0821 ± 0.0079 | 0.0791 ± 0.016 | 0.113 ± 0.0018 | 0.127 ± 0.011
7 | APEWGGGDEWWG | 0.75 ± 0.04 | 0.802 ± 0.015 | 0.691 ± 0.014 | 0.804 ± 0.019 | 0.697 ± 0.015 | 0.7 ± 0.0091 | 0.7984 ± 0.0027 | 0.767 ± 0.012
8 | APPFPSLSSFAP | 0.679 ± 0.039 | 0.744 ± 0.038 | 0.7 ± 0.016 | 0.737 ± 0.03 | 0.693 ± 0.032 | 0.706 ± 0.04 | 0.718 ± 0.026 | 0.717 ± 0.018
9 | APPPVAPAPGSA | 0.65 ± 0.026 | 0.701 ± 0.015 | 0.653 ± 0.035 | 0.7043 ± 0.0061 | 0.647 ± 0.041 | 0.675 ± 0.053 | 0.672 ± 0.051 | 0.709 ± 0.012
10 | APPRLPLLSCSQ | 0.652 ± 0.021 | 0.712 ± 0.0095 | 0.661 ± 0.05 | 0.6939 ± 0.00016 | 0.684 ± 0.045 | 0.642 ± 0.044 | 0.699 ± 0.014 | –
11 | APPSRRLTLRLA | 0.577 ± 0.039 | 0.696 ± 0.019 | 0.6614 ± 0.0066 | 0.709 ± 0.017 | 0.142 ± 0.003 | 0.145 ± 0.0058 | 0.32 ± 0.044 | –
12 | APRPSYSLLALL | 0.733 ± 0.034 | 0.858 ± 0.13 | 0.711 ± 0.04 | 0.783 ± 0.026 | 0.375 ± 0.01 | 0.41 ± 0.0052 | 0.616 ± 0.043 | 0.443 ± 0.025
13 | ASVSVWCVSVVV | 0.124 ± 0.017 | 0.166 ± 0.0023 | 0.103 ± 0.02 | 0.1641 ± 0.00088 | 0.087 ± 0.024 | 0.109 ± 0.017 | 0.148 ± 0.011 | 0.15 ± 0.026
14 | AVLSFVLVRSVV | 0.58 ± 0.052 | 0.619 ± 0.012 | 0.417 ± 0.026 | 0.604 ± 0.017 | 0.399 ± 0.031 | 0.417 ± 0.021 | 0.574 ± 0.0062 | 0.471 ± 0.02
15 | AWVLISNRRRIM | 0.62 ± 0.071 | 0.747 ± 0.011 | 0.648 ± 0.033 | 0.745 ± 0.025 | 0.187 ± 0.0092 | 0.216 ± 0.029 | 0.502 ± 0.095 | 0.262 ± 0.065
16 | AYPAHQLLVSCL | 0.509 ± 0.012 | 0.511 ± 0.021 | 0.405 ± 0.026 | 0.5435 ± 0.0014 | 0.351 ± 0.016 | 0.384 ± 0.038 | 0.5 ± 0.024 | 0.482 ± 0.028
17 | CCGWSGCVSGVL | 0.698 ± 0.029 | 0.7602 ± 0.0038 | 0.638 ± 0.014 | 0.7418 ± 0.0014 | 0.651 ± 0.012 | 0.657 ± 0.02 | 0.74 ± 0.024 | 0.717 ± 0.018
18 | CCMLCVVAWSGV | 0.424 ± 0.044 | 0.517 ± 0.097 | 0.303 ± 0.027 | 0.5581 ± 0.0018 | 0.257 ± 0.0051 | 0.295 ± 0.056 | 0.524 ± 0.0054 | 0.359 ± 0.0042
19 | CCSGWSVRLLCV | 0.578 ± 0.066 | 0.606 ± 0.036 | 0.494 ± 0.033 | 0.625 ± 0.025 | 0.243 ± 0.0063 | 0.269 ± 0.024 | 0.375 ± 0.0046 | 0.37 ± 0.025
20 | CCVLGDRCIGSD | 0.699 ± 0.018 | 0.735 ± 0.011 | 0.635 ± 0.013 | 0.76 ± 0.019 | 0.631 ± 0.013 | 0.655 ± 0.022 | 0.718 ± 0.013 | 0.678 ± 0.057

Row | Sequence | protein stability index (Saccharomyces cerevisiae [1]; [3]) | protein stability index (Saccharomyces cerevisiae [1]; [4]) | protein stability index (Saccharomyces cerevisiae [1]; [5]) | protein stability index (Saccharomyces cerevisiae [1]; [6]) | protein stability index (Saccharomyces cerevisiae [1]; [7]) | protein stability index (Saccharomyces cerevisiae [1]; [8]) | protein stability index (Saccharomyces cerevisiae [1]; [9]) | protein stability index (Saccharomyces cerevisiae [2])
21 | CFGIFWLFARLK | 0.281 ± 0.07 | 0.32 ± 0.03 | 0.289 ± 0.022 | 0.422 ± 0.0073 | 0.343 ± 0.018 | 0.274 ± 0.035 | 0.389 ± 0.035 | 0.345 ± 0.059
22 | CFVWFSVVLLFA | 0.109 ± 0.015 | 0.159 ± 0.0066 | 0.134 ± 0.028 | 0.227 ± 0.0053 | 0.136 ± 0.0019 | 0.117 ± 0.016 | 0.202 ± 0.014 | 0.194 ± 0.0056
23 | CFYSRTIILEHC | 0.503 ± 0.1 | 0.506 ± 0.0072 | 0.464 ± 0.0086 | 0.5003 ± 0.0025 | 0.23 ± 0.015 | 0.233 ± 0.028 | 0.34 ± 0.015 | 0.328 ± 0.015
24 | CGCLPYIGTKLC | 0.463 ± 0.076 | 0.711 ± 0.026 | 0.647 ± 0.028 | 0.766 ± 0.013 | 0.087 ± 0.036 | 0.117 ± 0.018 | 0.106 ± 0.012 | 0.165 ± 0.0027
25 | CHSICLVILEFI | 0.183 ± 0.0091 | 0.338 ± 0.049 | 0.25 ± 0.05 | 0.436 ± 0.011 | 0.183 ± 0.03 | 0.198 ± 0.028 | 0.384 ± 0.011 | 0.274 ± 0.034
26 | CIFLLMAILSLA | 0.48 ± 0.055 | 0.558 ± 0.0093 | 0.363 ± 0.029 | 0.534 ± 0.023 | 0.2341 ± 0.00064 | 0.27 ± 0.025 | 0.427 ± 0.0079 | 0.411 ± 0.075
27 | CIIAVMISIVSF | 0.0342 ± 0.0065 | 0.0959 ± 0.012 | 0.0327 ± 0.018 | 0.14 ± 0.035 | 0.02686 ± 0.00016 | 0.0274 ± 0.0082 | 0.0917 ± 0.023 | 0.0807 ± 0.031
28 | CILVSVDVIVFF | 0.0529 ± 0.014 | 0.147 ± 0.043 | 0.118 ± 0.051 | 0.207 ± 0.0033 | 0.103 ± 0.016 | 0.136 ± 0.026 | 0.166 ± 0.036 | 0.212 ± 0.005
29 | CLAGALSWLRRG | 0.704 ± 0.034 | 0.7646 ± 0.006 | 0.662 ± 0.015 | 0.745 ± 0.022 | 0.637 ± 0.013 | 0.646 ± 0.019 | 0.703 ± 0.022 | 0.732 ± 0.018
30 | CLLLFFIFLLFL | 0.484 ± 0.065 | 0.452 ± 0.0092 | 0.387 ± 0.036 | 0.463 ± 0.032 | 0.49 ± 0.026 | 0.376 ± 0.024 | 0.493 ± 0.029 | 0.41 ± 0.05
31 | CLLLILCFLCVR | 0.382 ± 0.0078 | 0.355 ± 0.017 | 0.343 ± 0.021 | 0.4415 ± 0.00095 | 0.364 ± 0.028 | 0.321 ± 0.02 | 0.401 ± 0.016 | 0.359 ± 0.026
32 | CLRFVFWFVCFV | 0.227 ± 0.047 | 0.238 ± 0.0095 | 0.254 ± 0.03 | 0.351 ± 0.0079 | 0.268 ± 0.0087 | 0.186 ± 0.01 | 0.231 ± 0.018 | 0.27 ± 0.087
33 | CLVISVLFGVVA | 0.2376 ± 0.00026 | 0.269 ± 0.067 | 0.218 ± 0.034 | 0.382 ± 0.0091 | 0.1782 ± 0.0014 | 0.21 ± 0.016 | 0.326 ± 0.0065 | –
34 | CLYATQFWGRYG | 0.69 ± 0.062 | 0.74 ± 0.019 | 0.629 ± 0.025 | 0.7737 ± 0.005 | 0.229 ± 0.0079 | 0.258 ± 0.033 | 0.6 ± 0.014 | 0.434 ± 0.07
35 | CPYSNAFALCVF | 0.153 ± 0.023 | 0.237 ± 0.022 | 0.22 ± 0.026 | 0.316 ± 0.0064 | 0.183 ± 0.0056 | 0.192 ± 0.019 | 0.253 ± 0.0037 | 0.272 ± 0.034
36 | CREFLQSMLFYC | 0.688 ± 0.043 | 0.744 ± 0.017 | 0.645 ± 0.044 | 0.751 ± 0.018 | 0.241 ± 0.016 | 0.281 ± 0.021 | 0.56 ± 0.02 | 0.373 ± 0.1
37 | CSAVYNLHLLYS | 0.696 ± 0.022 | 0.745 ± 0.012 | 0.626 ± 0.013 | 0.741 ± 0.011 | 0.469 ± 0.04 | 0.48 ± 0.022 | 0.6452 ± 0.0029 | 0.519 ± 0.076
38 | CSFPTFRSLLLL | 0.532 ± 0.018 | 0.647 ± 0.014 | 0.502 ± 0.018 | 0.671 ± 0.014 | 0.218 ± 0.0036 | 0.23 ± 0.021 | 0.438 ± 0.058 | 0.3 ± 0.078
39 | CSPSCNIVRLVS | 0.527 ± 0.016 | 0.723 ± 0.025 | 0.632 ± 0.02 | 0.712 ± 0.008 | 0.11 ± 0.018 | 0.114 ± 0.017 | 0.198 ± 0.059 | 0.294 ± 0.022
